From patent US20230416356A1 (SCOUT BIO, published 2023)

B1: chimeric monoclonal antibody RA4 (chRA4) (antibody, V domains shown)
VH: QIQLVQSGPELKKPGETVKISCKASGYTFTDYSMHWVKQAPGKGLRWMGWINTETGKTIHAEDFKGRVAFSLETSASTAYLQINNLKNEDTATYFCASGRPDYWGQGTTLTVSS
VL: DIVLSQSPASLAVSLGQRATISCRASESVEYYGTSLMQWYQQKPGQPPKLLIYAASGVESGVPARFSGSGSGTDFSLIIHPVEEDDIAMYFCQQSRKVPYTFGGGTKLEIKR
notes: also called chimeric RA4; chimeric RA4.D2 antibody
B2: murine monoclonal antibody RA4.D2 (antibody, V domains shown)
VH: B1 VH
VL: B1 VL
notes: Mouse hybridoma antibody with a kappa light chain; also called murine RA4

How the values were obtained:
human IL-31 = target: T1, human IL-31 (human, UniProt Q6EBC2 24-164); assay: ELISA, antigen coated
T1 construct: also called hIL-31
T1 sequence (looked up): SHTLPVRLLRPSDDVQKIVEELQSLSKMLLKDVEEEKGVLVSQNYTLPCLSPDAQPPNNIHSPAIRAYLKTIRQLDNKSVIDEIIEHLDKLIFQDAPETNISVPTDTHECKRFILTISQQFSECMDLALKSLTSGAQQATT

[1] = target: T2, Recombinant canine IL-31 (ProSpec-Tany); amino acid residues 24-159 of Accession no. NP_001159386; SEQ ID … (canine); assay: cell-based or functional assay
T2 chain: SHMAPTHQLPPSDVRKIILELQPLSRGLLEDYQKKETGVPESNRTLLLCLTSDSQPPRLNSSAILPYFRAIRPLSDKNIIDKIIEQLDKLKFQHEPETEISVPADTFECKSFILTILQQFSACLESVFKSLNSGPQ

[2] = target: T3, Canine IL-31_4xMUT_combo (SEQ ID NO: 74) (canine); assay: ELISA, protein coated (100 ng/well)
T3 construct: See note of m25; the entry already carries the substitutions, the leader and the His tag; also called all 4 residues (L29, Y32, Q33, and P40) substituted for alanine in combination
T3 chain: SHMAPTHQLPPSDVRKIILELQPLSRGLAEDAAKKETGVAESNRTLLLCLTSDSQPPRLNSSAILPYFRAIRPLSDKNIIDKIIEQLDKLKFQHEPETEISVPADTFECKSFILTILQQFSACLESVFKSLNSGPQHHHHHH
Experimental: (§1) Binding to the various IL-31 proteins and peptides was assessed by ELISA. IL-31 proteins or peptides (100 ng/well) were immobilized to polystyrene microplates as capture antigen. Wells were blocked with PBS/0.05% Tween 20/1% BSA. Coated wells were incubated for 1 h at room temperature with anti-IL-31 mAbs diluted in PBS/0.05% Tween 20/1% BSA (100 μl/well). After washing, the plates were incubated with a 1/10,000 dilution […] Rabbit Anti-Dog IgG (whole molecule) (Sigma) in PBS/0.05% Tween 20/1% BSA. Plates were washed with PBS/0.05% Tween 20 and developed by the addition of TMB substrate. Development was stopped by the addition of 100 ul ELISA stop Solution (Invitrogen) and absorbance of each well was determined at an optical density (OD) of 450 nm.
Confirmation of the unique epitope targeted by RA4 mAb was performed by assessing the binding of RA4 mAb to full length canine IL-31 proteins that contained each of the 4 key residues identified above, substituted for alanine, and a version with all 4 residues substituted for alanine in combination. […] Binding of RA4 mAb and M14 mAb to each of the proteins was determined by ELISA, as detailed above. […] When all 4 residues (L29, Y32, Q33, and P40) were substituted for alanine in combination, no binding to canine IL-31 was detected. […]

[3] = target: T4, canine IL-31 alanine-scanning peptide (residues 18-42 of SEQ ID NO:1) L29A (canine); assay: ELISA on alanine-scanning peptides, normalised to the first peptide of the series
T4 construct: also called L29A peptide
T4 peptide: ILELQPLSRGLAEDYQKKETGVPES
Experimental: as §1
(§2) An alanine-scanning peptide library of the region encompassing amino acid residues 18-42 of SEQ ID NO:1 was generated ([…]; SEQ ID NO:79), consisting of 25 peptides, each with a single alanine mutation at a different residue. Binding of the RA4 mAb to each of the peptides was determined by ELISA, as detailed above.

[4] = target: T5, canine IL-31 alanine-scanning peptide (residues 18-42 of SEQ ID NO:1) Y32A (canine); assay: as above
T5 construct: See note of m18; also called Y32A peptide
T5 peptide: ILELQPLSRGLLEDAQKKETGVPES
Experimental: as §1, §2

[5] = target: T6, canine IL-31 alanine-scanning peptide (residues 18-42 of SEQ ID NO:1) Q33A (canine); assay: as above
T6 construct: See note of m18; also called Q33A peptide
T6 peptide: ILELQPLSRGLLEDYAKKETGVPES
Experimental: as §1, §2

[6] = target: T7, canine IL-31 alanine-scanning peptide (residues 18-42 of SEQ ID NO:1) P40A (canine); assay: as above
T7 construct: See note of m18; also called P40A peptide
T7 peptide: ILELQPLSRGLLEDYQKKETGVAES
Experimental: as §1, §2

[7] = target: T8, canine IL-31 alanine-scanning peptide (residues 18-42 of SEQ ID NO:1) K35A (canine); assay: as above
T8 construct: See note of m18; also called K35A peptide
T8 peptide: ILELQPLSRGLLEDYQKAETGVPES
Experimental: as §1, §2

[8] = target: T9, canine IL-31 alanine-scanning peptide (residues 18-42 of SEQ ID NO:1) V39A (canine); assay: as above
T9 construct: See note of m18; also called V39A peptide
T9 peptide: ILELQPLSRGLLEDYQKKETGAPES
Experimental: as §1, §2

[9] = target: T10, canine IL-31 alanine-scanning peptide (residues 18-42 of SEQ ID NO:1) S42A (canine); assay: as above
T10 construct: See note of m18; also called S42A peptide
T10 peptide: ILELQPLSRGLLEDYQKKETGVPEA
Experimental: as §1, §2

[10] = target: T2, Recombinant canine IL-31 (ProSpec-Tany; …); assay: hybridoma screen, microarray ELISA format

Binder	binding result (human IL-31)	inhibition of canine IL-31-induced STAT-3 phosphorylation in canine DH82 cells (IC50) [1] [µg/mL]	binding result [2]	binding as a percentage of binding to the first peptide in the series [3] [%]	binding as a percentage of binding to the first peptide in the series [4] [%]	binding as a percentage of binding to the first peptide in the series [5] [%]	binding as a percentage of binding to the first peptide in the series [6] [%]	binding as a percentage of binding to the first peptide in the series [7] [%]	binding as a percentage of binding to the first peptide in the series [8] [%]	binding as a percentage of binding to the first peptide in the series [9] [%]	binding result [10]
B1	no binding	1.5	no binding	< 15	< 15	< 15	< 15	< 50	< 50	< 50	–
B2	–	–	–	–	–	–	–	–	–	–	binds
